From article PMC9842190 (Seminars in immunology, 2022)

B1: CCP domains 19-20 of human Factor H (domain or fragment)
chain: GKCGPPPPIDNGDITSFPLSVYAPASSVEYQCQNLYQLEGNKRITCRNGQWSEPPKCLHPCVISREIMENYNIALRWTAKQKLYSRTGESVEFVCKRGYRLSSRSHTLRTTCWDGKLEYPTCAKR
B2: C-terminal domain of the Staphylococcus aureus immune evasion protein Efb (domain or fragment)
chain: TDATIKKEQKLIQAQNLVREFEKTHTVSAHRKAQKAVNLVSFEYKVKKMVLQERIDNVLKQGLV

Columns and labels:
[1] = molecular target: T1, Human C3b, site-specifically biotinylated at its thioester cysteine (human, UniProt P01024 23-667; P01024 749-1663); test: SPR
T1 sequence (P01024 23-667, chain 1 of 2): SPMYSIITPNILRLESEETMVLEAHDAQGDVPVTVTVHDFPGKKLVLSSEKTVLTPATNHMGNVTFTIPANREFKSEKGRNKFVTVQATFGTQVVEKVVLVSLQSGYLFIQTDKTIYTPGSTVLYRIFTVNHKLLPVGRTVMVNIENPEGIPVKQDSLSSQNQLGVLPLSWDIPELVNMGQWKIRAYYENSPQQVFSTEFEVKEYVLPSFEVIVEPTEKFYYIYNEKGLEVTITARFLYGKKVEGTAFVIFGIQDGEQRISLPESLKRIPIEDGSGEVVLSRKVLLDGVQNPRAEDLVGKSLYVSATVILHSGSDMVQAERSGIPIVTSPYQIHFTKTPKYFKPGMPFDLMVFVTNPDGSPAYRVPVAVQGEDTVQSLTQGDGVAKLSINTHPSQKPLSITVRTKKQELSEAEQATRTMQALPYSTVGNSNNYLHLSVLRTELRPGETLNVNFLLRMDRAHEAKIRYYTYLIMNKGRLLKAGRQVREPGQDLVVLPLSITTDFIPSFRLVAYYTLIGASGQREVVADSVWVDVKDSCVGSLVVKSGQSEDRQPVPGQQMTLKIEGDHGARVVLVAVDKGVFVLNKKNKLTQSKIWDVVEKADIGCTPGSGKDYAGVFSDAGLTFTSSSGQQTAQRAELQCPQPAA
T1 sequence (P01024 749-1663, chain 2 of 2): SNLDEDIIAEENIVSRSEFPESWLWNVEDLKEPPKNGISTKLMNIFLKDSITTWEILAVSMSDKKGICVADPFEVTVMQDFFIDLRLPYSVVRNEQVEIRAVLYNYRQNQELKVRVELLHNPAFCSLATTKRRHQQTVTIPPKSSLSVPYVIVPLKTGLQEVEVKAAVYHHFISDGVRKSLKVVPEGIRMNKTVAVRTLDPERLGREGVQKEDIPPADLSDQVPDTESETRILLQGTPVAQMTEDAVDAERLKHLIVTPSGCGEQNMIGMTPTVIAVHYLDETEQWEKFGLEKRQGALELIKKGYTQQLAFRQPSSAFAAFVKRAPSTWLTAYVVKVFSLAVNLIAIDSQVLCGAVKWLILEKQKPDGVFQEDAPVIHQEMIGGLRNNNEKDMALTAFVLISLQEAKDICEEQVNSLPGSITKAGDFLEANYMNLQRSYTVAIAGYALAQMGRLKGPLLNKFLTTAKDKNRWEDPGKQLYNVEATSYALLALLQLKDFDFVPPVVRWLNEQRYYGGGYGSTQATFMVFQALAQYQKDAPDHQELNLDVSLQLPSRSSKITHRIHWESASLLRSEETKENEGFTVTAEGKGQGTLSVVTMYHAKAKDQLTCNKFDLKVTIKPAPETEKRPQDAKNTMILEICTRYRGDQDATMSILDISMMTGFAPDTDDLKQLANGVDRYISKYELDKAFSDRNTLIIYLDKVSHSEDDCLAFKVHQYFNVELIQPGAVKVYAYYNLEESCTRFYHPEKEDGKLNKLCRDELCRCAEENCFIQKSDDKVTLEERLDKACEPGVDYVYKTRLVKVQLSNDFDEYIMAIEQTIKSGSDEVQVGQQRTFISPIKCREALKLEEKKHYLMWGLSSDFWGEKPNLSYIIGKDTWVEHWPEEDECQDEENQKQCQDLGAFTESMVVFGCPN

[2] = molecular target: T1, Human C3b, site-specifically …; test: SPR; remark: listed apart in the source

Binder | binding result [1] | Kd [2] [nM] | half-life of the complex [2] [h] | koff [2] [s⁻¹]
B1 | binds | – | – | –
B2 | – | 0.11 | ~1 | 0.000187
